Molecular target: the molecule itself
Assay: SDS-PAGE without DTT (non-reducing) and western blot; purified recombinant His-USP5 or His-USP5^C195A in PBS treated with H2O2 for 10 min; SDS-PAGE with or without DTT (Fig. 5g, Supplementary Fig. S5e); western blot of H2O2-treated protein (Fig. 5k)

B1: His-USP5 (purified recombinant) (enzyme, human, UniProt P45974 1-858, looked up)
chain: MAELSEEALLSVLPTIRVPKAGDRVHKDECAFSFDTPESEGGLYICMNTFLGFGKQYVERHFNKTGQRVYLHLRRTRRPKEEDPATGTGDPPRKKPTRLAIGVEGGFDLSEEKFELDEDVKIVILPDYLEIARDGLGGLPDIVRDRVTSAVEALLSADSASRKQEVQAWDGEVRQVSKHAFSLKQLDNPARIPPCGWKCSKCDMRENLWLNLTDGSILCGRRYFDGSGGNNHAVEHYRETGYPLAVKLGTITPDGADVYSYDEDDMVLDPSLAEHLSHFGIDMLKMQKTDKTMTELEIDMNQRIGEWELIQESGVPLKPLFGPGYTGIRNLGNSCYLNSVVQVLFSIPDFQRKYVDKLEKIFQNAPTDPTQDFSTQVAKLGHGLLSGEYSKPVPESGDGERVPEQKEVQDGIAPRMFKALIGKGHPEFSTNRQQDAQEFFLHLINMVERNCRSSENPNEVFRFLVEEKIKCLATEKVKYTQRVDYIMQLPVPMDAALNKEELLEYEEKKRQAEEEKMALPELVRAQVPFSSCLEAYGAPEQVDDFWSTALQAKSVAVKTTRFASFPDYLVIQIKKFTFGLDWVPKKLDVSIEMPEELDISQLRGTGLQPGEEELPDIAPPLVTPDEPKGSLGFYGNEDEDSFCSPHFSSPTSPMLDESVIIQLVEMGFPMDACRKAVYYTGNSGAEAAMNWVMSHMDDPDFANPLILPGSSGPGSTSAAADPPPEDCVTTIVSMGFSRDQALKALRATNNSLERAVDWIFSHIDDLDAEAAMDISEGRSAADSISESVPVGPKVRDGPGKYQLFAFISHMGTSTMCGHYVCHIKKEGRWVIYNDQKVCASEKPPKDLGYIYFYQRVAS
notes: USP5; Treated with H2O2 before the dimerisation assays; also called recombinant USP5; WT USP5; source: E. coli BL21(DE3), purified (HisTrap HP, Superdex 200 increase)
  stoichiometry N: 2

From article PMC9759531, “USP5-Beclin 1 axis overrides p53-dependent senescence and drives Kras-induced tumorigenicity” (Nature Communications, 2022)
